Target: T1, 天然のヒトCD4(細胞表面) (human, UniProt P01730 26-458)
T1 construct: whole, on cells; also called nCD4; CD4 on SupT1 cells
Assay: flow cytometry on SupT1 cells, serial dilutions, half-maximal fluorescence

B1: 4D1 (antibody, V domains shown)
VH: EVQLVQSGAEVKKPGESLKISCKGSGYSFTGYWIGWVRQMPGKGLEWMGIIYPGDSDTTYSPSFQGQVTISADKSISTAYLQWSSLKASDTAMYYCARDQLGLFDYWGQGTLVTVSS
VL: DIQMTQSPSSLSASVGDRVTITCRASQGISSWLAWYQQKPEKAPKSLIYSASSLQSGVPSRFSGSGSGTDFTLTISSLQPEDFATYYCQQYDSYPYTFGQGTKLEIK
Ka: > 1e+09 M⁻¹

— JP2009045066A (dated 2009)
